Measured values published in patent US7229960B2, “Methods and compositions for inhibiting GRB7” (University of Vermont and State Agricultural College, priority 2000, dated 2007).
Entries after “also recorded” stand apart in the source; their conditions may differ. Non-standard residues stand in square brackets, D forms with d. No end group written: not given here. pY = N[C@@H](Cc1ccc(OP(=O)(O)O)cc1)C(=O)O

Assays:
SH2 domain of human Grb7 = molecular target: T1, SH2 domain of human Grb7 (Homo sapiens, UniProt Q14451); assay: Phage ELISA, peptide-phage binding to Grb7-SH2 domain-GST; conditions: for Relative binding affinity for Grb7: ELISA binding assay, comparison among G7BPs; for Effect of mutation of G7BP-4 phage clone on binding to Grb7-SH2-GST: phage ELISA, compared with G7BP-4
T1 construct: The SH2 domain of human Grb7 containing a GST fusion tag; made in house; host or cells: E. coli
From the text: The G7BPs were identified using peptide phage display techniques. Two phage display libraries were created and screened that led to the identification of these peptides. The first library was a random peptide phage-display library containing more than 10^7 different cyclic decapeptides flanked at each end by regions of four amino acids, according to the following general motif: X4 C X10 C X4 (X=any amino acid residue, C=cysteine). […] The SH2 domain of human Grb7 containing a GST fusion tag was purified from an E. coli expression system. The random 10mer library was screened using standard phage display methodology (Smith GP. 1985. Science. 228:1315-7). The phage library was added to the target protein which was immobilized on glutathione Sepharose beads (Pharmacia). The unbound phage were removed with a series of washes and the bound phage were eluted by competitive elution with excess glutathione. These bound phage were allowed to infect E. coli in order to amplify the eluted phage. This screening process was repeated two times for a total of three rounds of screening. After the third round of screening, clones from the amplified phage were isolated and sequenced. Thirty-nine clones were characterized and all contained a Y-A/D/E-N motif, where the +2 position was enriched for alanine, aspartic acid, and glutamic acid. The second library, biased for this Y-A/D/E-N motif, was created in the same FuseV phage display system. This biased library contained over 10^6 different clones.
An ELISA binding assay was used to determine whether the peptide-phage bind specifically to the SH2 domain of Grb7, and not to the fusion protein (GST) or other SH2 domains that are homologous to Grb7. The overall methodology of an ELISA is well established. Four different proteins were bound to a polystyrene 96-well plate: Grb7-SH2 domain-GST, GST alone, Grb2-GST and BSA as a non-specific negative control. Preparations of the concentrated Grb7 peptide-phage clones were allowed to bind to these proteins. Non-specific binding was blocked by casein. Binding of phage was detected using an anti-phage antibody conjugated to horseradish peroxidase.
Mutational analysis of G7BP-4 has been conducted to determine which amino acid residues are important in peptide binding to Grb7-SH2 as well as to determine the size restriction of these peptides. The mutations for G7BP-4 include the following: (1) eliminating the 4 amino acids flanking the cysteines ([…], SEQ ID NO:35) referred to as G7BP4-No Arms (NA), (2) mutating the cysteines to serine residues ([…], SEQ ID NO:36), which are structurally very similar, referred to as G7BP4-Ser, (3) mutating the cysteines to valine residues ([…], SEQ ID NO:37), which is similar in structure and charge, and (4) a combination where the cysteines were mutated to serines and the 4 flanking amino acids were removed ([…], SEQ ID NO:38), referred to as G7BP-No Arms(NA)-Ser. The substitutions of valine and serine for cysteine will eliminate the peptides ability to form a disulfide loop. The mutations were created as a DNA oligo, ligated into the fuse5 vector, and expressed as a peptide-phage. The resultant phage were tested in a phage ELISA for their ability to bind to Grb7-SH2-GST. […] Variants of the G7BP-1, G7BP-2, G7BP-3, G7BP-5, G7BP-6 and G7BP-7 which similarly lack the 4 tracking amino acids on both ends can also bind specifically to Grb7. These peptides have the following amino acid sequences respectively: […]

Grb7-SH2-GST = Grb7-SH2-GST (Homo sapiens, UniProt Q14451); assay: Competition ELISA, free synthetic peptide versus Grb7 binding peptide-phage on Grb7-SH2-GST; conditions: for Inhibition of G7-8NA peptide-phage binding to Grb7-SH2 / Inhibition of G7-18 peptide-phage binding to Grb7-SH2: free synthetic peptide at 1, 10, 100 uM
From the text: The G7-18 (FIG. 5A) and G7-8NA (FIG. 5B) peptide-phage were concentrated with standard polyethylene glycol precipitation methods and added to each well (1×10^6 phage/well) in the presence of synthetic peptides or without (control). G7-18 peptide-phage competitors were G7-18, G7-18NATE and G7-8 free synthetic peptides (FIG. 5A). G7-8NA peptide-phage competitors were G7-8, G7-8NA and G7-8NATE free synthetic peptides (FIG. 5B). The synthetic peptides were mixed at different concentrations (1, 10, 100 uM) with peptide-phage before adding to Grb7-SH2-GST. Unbound phage were washed away with Tween-TBS buffer and bound phage were detected with anti-M13-horseradish peroxidase (Amersham-Pharmacia Biotech) and ABTS substrate (Calbiochem). Phage was detected by anti-M13-HRP antibody conjugate and detected using ABTS substrate. Plates were read at OD405.

[1] = molecular target: association of Grb7 with the ErbB family of receptors (Homo sapiens, UniProt Q14451); assay: Co-immunoprecipitation of Grb7 with tyrosine phosphorylated ErbB family in heregulin-stimulated SKBR3 cell lysate; conditions: for Inhibition of association of Grb7 with the ErbB family: heregulin β1 stimulated SKBR3 lysate, anti-Grb7 IP, anti-phosphotyrosine at 185 kDa, densitometry
association of Grb7 with the ErbB family of receptors, sequence (Q14451 whole entry): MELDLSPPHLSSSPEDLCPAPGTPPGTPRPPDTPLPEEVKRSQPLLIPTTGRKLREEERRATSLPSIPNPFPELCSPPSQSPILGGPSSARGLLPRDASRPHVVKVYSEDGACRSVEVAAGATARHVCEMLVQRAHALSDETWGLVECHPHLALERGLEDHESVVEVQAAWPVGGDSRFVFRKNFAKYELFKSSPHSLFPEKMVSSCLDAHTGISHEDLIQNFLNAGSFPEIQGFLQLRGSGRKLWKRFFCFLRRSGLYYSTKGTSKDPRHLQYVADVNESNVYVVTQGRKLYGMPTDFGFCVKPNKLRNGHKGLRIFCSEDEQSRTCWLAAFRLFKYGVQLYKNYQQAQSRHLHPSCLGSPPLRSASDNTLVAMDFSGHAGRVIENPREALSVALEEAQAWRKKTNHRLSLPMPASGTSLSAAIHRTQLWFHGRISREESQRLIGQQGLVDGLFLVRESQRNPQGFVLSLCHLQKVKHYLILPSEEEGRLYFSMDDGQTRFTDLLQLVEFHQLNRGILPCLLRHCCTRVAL
Procedure: Two of the Grb7-binding peptides were tested for their ability to inhibit Grb7 from binding its known target molecules, such as ErbB2 and ErbB3, in whole cell extracts. Whole cell extracts were made from the cell line SKBR3, which overexpresses Grb7, ErbB2 and ErbB3. […] The immunoprecipitations were carried out with anti-Grb7 followed by western blot. The western blot was divided so the top half was incubated with anti-phosphotyrosine to detect the associated ErbB family that migrates at 185 kDa. The bottom half of western blot was incubated with anti-Grb7 as a loading control.

T1 sequence (Q14451 431-527 limits assumed): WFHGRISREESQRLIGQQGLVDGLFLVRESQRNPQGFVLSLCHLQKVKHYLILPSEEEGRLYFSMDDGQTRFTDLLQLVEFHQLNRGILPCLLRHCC
Grb7-SH2-GST, sequence (Q14451 431-527 limits assumed): as above

For “C VFWG YAN DWL C (CVFGYANDWLC; Variant of G7BP-4) [G7BP-4NA]”, the “Relative binding affinity for Grb7” value (SH2 domain of human Grb7) was “lesser affinity”, the “Effect of mutation of G7BP-4 phage clone on binding to Grb7-SH2-GST” value (“Effect of mutation of G7BP-4 phage clone” for short) (SH2 domain of human Grb7) was “did not effect its ability to bind” and the “Inhibition of G7-8NA peptide-phage binding to Grb7-SH2” value (Grb7-SH2-GST) was “inhibition”.
For “DpYVPML (D[pY]VPML) [N1480, reference compound]”, the “Inhibition of Grb7 binding peptide-phage binding to Grb7-SH2” value (Grb7-SH2-GST; phage clone not specified, data not shown) was “No inhibition”.
With “GVSN C VFWG YAN DWL C SDYS (GVSNCVFWGYANDWLCSDYS; Peptide sequence from FuseV Phage Display) [G7BP-4]” the “Relative binding affinity for Grb7” value (SH2 domain of human Grb7) was “higher affinity”, the “Inhibition of G7-8NA peptide-phage binding to Grb7-SH2” value (Grb7-SH2-GST) was “inhibition” and the “Inhibition of G7-18 peptide-phage binding to Grb7-SH2” value (Grb7-SH2-GST; listed as G7-8) was “inhibits; also recorded: inhibition”.
“GVSNSVFGYANDWLSSDYS (Variant of G7BP-4) [G7BP4-Ser]” was tested, and the “Effect of mutation of G7BP-4 phage clone” value (SH2 domain of human Grb7) was “reducing the binding capacity”.
With “GVSNVVFGYANDWLVSDYS (Variant of G7BP-4) [SEQ ID NO:37, G7BP-4 with cysteines mutated to valine]” the “Effect of mutation of G7BP-4 phage clone” value (SH2 domain of human Grb7) was “reducing the binding capacity”.
For “PQPEYVNQPD (Non-phosphorylated peptide which mimics ErbB2 site) [Y 139]”, the “Inhibition of association of Grb7 with the ErbB family” value [1] was “showed no competition”.
“RSTL C WFEG YDN TFP C KYFR (RSTLCWFEGYDNTFPCKYFR; Peptide sequence from FuseV Phage Display) [G7BP-5]” was tested, and the “Inhibition of G7-18 peptide-phage binding to Grb7-SH2” value (Grb7-SH2-GST) was “inhibition” and the “Level of inhibition of Grb7 co-immunoprecipitation with the ErbB family” value ([1]; 100 uM, data not shown) was “same levels of inhibition”.
In the case of “SVFGYANDWLS (Variant of G7BP-4) [G7BP-No Arms(NA)-Ser]”, the “Effect of mutation of G7BP-4 phage clone” value (SH2 domain of human Grb7) is reported as “reducing the binding capacity”.
With “Y1139 peptide: the Y1139 ErbB2-site peptide when it is phosphorylated (PQPEYVNQPD; not fully specified (residue 5))” the “Inhibition of association of Grb7 with the ErbB family” value [1] was “does compete”.
For “^VFWG YAN DWL C^ (VFWGYANDWLC; cyclised thioether; Variant G7BP-4NATE)”, the “Inhibition of G7-8NA peptide-phage binding to Grb7-SH2” value (Grb7-SH2-GST; listed as G7-8NATE) was “inhibition; also recorded: to a lesser extent than seen with the disulfide containing peptides”.
